Laboratory results from US11491212.

B1: FIXa R338E/T343R/E410N (protein)
chain 1: not shown
chain 2: not shown
B2: FIXa Y155F/K247N/N249S/T343R/R403E/E410N (protein)
chain 1: not shown
chain 2: not shown
B3: FIXa K247N/N249S/R318Y/T343R/R403E/E410N (protein)
chain 1: not shown
chain 2: not shown
B4: FIXa Y155F/K247N/N249S/R338E/E410N (protein)
chain 1: not shown
chain 2: not shown
B5: FIXa-K228N/K247N/N249S/R318Y/R338E/T343R/R403E/E410N (protein)
chain 1: not shown
chain 2: not shown
B6: FIXa Y155F/K247N/N249S/R338E/T343R/E410N (protein)
chain 1: not shown
chain 2: not shown
B7: FIXa Y155F/K247N/N249S/R318Y/T343R/E410N (protein)
chain 1: not shown
chain 2: not shown
B8: FIXa K247N/N249S/R318Y/T343R/R403E (protein)
chain 1: not shown
chain 2: not shown
B9: FIXa Y155F/K247N/N249S/R318Y/T343R/R403E (protein)
chain 1: not shown
chain 2: not shown
B10: FIXa K247N/N249S/R338E/T343R/E410N (protein)
chain 1: not shown
chain 2: not shown
B11: FIXa-Y155F/N260S/R318Y/R338E/T343R/R403E/E410N (protein)
chain 1: not shown
chain 2: not shown
B12: FIXa K247N/N249S/R318Y/T343R/E410N (protein)
chain 1: not shown
chain 2: not shown
B13: FIXa Y155F/K247N/N249S/R338E/T343R/R403E (protein)
chain 1: not shown
chain 2: not shown
B14: FIXa K247N/N249S/R338E/T343R/R403E (protein)
chain 1: not shown
chain 2: not shown

Each protein was assayed against Factor X, P00742.
Chain of Factor X, P00742 (P00742 whole entry, looked up): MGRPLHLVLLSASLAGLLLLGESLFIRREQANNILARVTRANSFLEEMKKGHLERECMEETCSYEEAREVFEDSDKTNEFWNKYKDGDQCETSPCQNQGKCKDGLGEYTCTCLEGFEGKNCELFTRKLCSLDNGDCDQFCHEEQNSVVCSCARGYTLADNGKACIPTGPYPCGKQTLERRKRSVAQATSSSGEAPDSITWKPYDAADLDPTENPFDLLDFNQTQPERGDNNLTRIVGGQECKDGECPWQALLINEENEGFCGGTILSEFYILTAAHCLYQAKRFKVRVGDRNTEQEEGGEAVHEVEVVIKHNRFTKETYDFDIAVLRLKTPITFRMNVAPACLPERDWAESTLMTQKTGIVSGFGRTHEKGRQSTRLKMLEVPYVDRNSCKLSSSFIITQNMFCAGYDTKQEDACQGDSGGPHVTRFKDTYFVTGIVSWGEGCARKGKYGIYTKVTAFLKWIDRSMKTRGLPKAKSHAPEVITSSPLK

Row | Protein | % of WT kcat/KM [%] | kcat/KM [M⁻¹ s⁻¹] | KM [µM]
1 | B1 | 201 | 9.3e+07 | 
2 | B2 | 635 | 2.9e+08 | 
3 | B3 | 279 | 1.3e+08 | 
4 | B4 | 1009 | 4.7e+08 | 
5 | B5 |  | 4.1e+08 | 0.0251
6 | B6 | 391 | 1.8e+08 | 
7 | B7 | 668 | 3.1e+08 | 
8 | B8 | 84 | 3.9e+07 | 
9 | B9 | 276 | 1.3e+08 | 
10 | B10 | 676 | 3.1e+08 | 
11 | B11 |  | 1.5e+08 | 0.0402
12 | B12 | 439 | 2e+08 | 
13 | B13 | 1269 | 5.9e+08 | 
14 | B14 | 1215 | 5.6e+08 | 
